This test deals with 16055 NFL trimer (native flexibly linked HIV-1 Env stabilized trimer, clade C strain 16055) (HIV-1, clade C, strain 16055).

B1: D11A.B5 Fab (Fab, V domains shown)
VH: HLQLQESGPGLVKPSETLSLTCAVSGGSSSDYWWSWIRQPPGKGLEWIGRIDSIGNTYYNPSLRSRVTLSVDTSKNQFSLELTSVTAADTAVYYCARPYCAIGRCYESWGQGVLVTVSS
VL: EVVFTQPHSVSGSPGQTVTISCTRTSGSIDSEYVQWYQQRPGSAPTIVIYRDNQRPSGVPDRFSGSIDSSSNSASLAISGLKSEDEADYYCQSSDDSYNWVFGGGTRLTVL
Consider B1, for which the IC50 of neutralisation of the autologous 16055 pseudovirus (TZM-bl cells); the mAb on Env of the virus is 3.68 μg/mL.

B2: VD20.5A4 Fab (Fab, V domains shown)
VH: QVQLQESGPGLVKPSETLSLTCAVSGASISSNYWSWIRQPPGKGLEWIGRIYDPTDSTDYNPSLESRATISKDTSKNHFSLTLSSVTAADTAVYFCARGLWSGYFFWFDVWGPGVLVTVSS
VL: DIQMTQSPSSLSASVGDSVTVTCRASQGIDKELSWYQQKPGKAPTLLIYAASSLQTGVSSRFSGSGSGTDYTLTISSLQPEDVATYYCLQDYATPYSFGQGTKVEIK
With B2, the IC50 of neutralisation of the autologous 16055 pseudovirus (TZM-bl cells); the mAb on Env of the virus was determined as 0.005 μg/mL.
